# US20230041268A1
# B1: TCR6-2 (CMV A2/pp65 495-503-specific) (protein)
# chain 1: GQQLNQSPQSMFIQEGEDVSMNCTSSSIFNTWLWYKQDPGEGPVLLIALYKAGELTSNGRLTAQFGITRKDSFLNISASIPSDVGIYFCAGPMKTSYDKVIFGPGTSLSVIP
# chain 2: DAGVIQSPRHEVTEMGQEVTLRCKPISGHDYLFWYRQTMMRGLELLIYFNNNVPIDDSGMPEDRFSAKMPNASFSTLKIQPSEPRDSAVYFCASSSANYGYTFGSGTRLTVV
# Target: CMV pp65 peptide on HLA-A*02:01 (human)
# Test: CD137 up-regulation; peptide titration on the HLA-A02:01 positive B cell line; full-length, on cells
# Settings: chains Valpha:Vbeta
binder,measurement,value
B1,EC50 of peptide,10 nM
